Assay results: patent US20180155451A1 (published 2018)

T1: FcγRIIa R (extracellular domain with a His tag at the C terminus) (human, UniProt P12318 34-217)
T1 construct: extracellular domain; expressed in FreeStyle293 cells; also called FcgRIIa R; FcγRIIa type R; not shown: His tag at the C terminus
T1 sequence (looked up): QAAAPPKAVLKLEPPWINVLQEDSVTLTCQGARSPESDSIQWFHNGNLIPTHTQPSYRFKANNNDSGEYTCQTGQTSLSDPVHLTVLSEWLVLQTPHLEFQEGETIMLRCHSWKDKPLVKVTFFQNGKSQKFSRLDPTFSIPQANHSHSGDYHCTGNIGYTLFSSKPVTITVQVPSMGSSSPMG


What follows are binders tested against T1, FcγRIIa R (extracellular domain with a …) (assay: SPR Biacore, relative binding).

Binder | He/Con_2aR
GpH7-A5/GpH7-B3 variant S337_18N/GpL16-k0 (antibody, human IgG1, kappa, heterodimerized; mutation in one H chain; also called He Ab) heavy 1: not shown heavy 2: not shown light: DIVMTQSPLSLPVTPGEPASISCQASESLVHSNRNTYLHWYLQKPGQSPQLLIYKVSNRFSGVPDRFSGSGSGTDFTLKISRVEAEDVGVYYCSQNTHVPPTFGQGTKVEIERTVAAPSVFIFPPSDEQLKSGTASVVCLLNNFYPREAKVQWKVDNALQSGNSQESVTEQDSKDSTYSLSSTLTLSKADYEKHKVYACEVTHQGLSSPVTKSFNRGEC | 107 % of GpH7-A5/GpH7-B3/GpL16-k0 (=100)
GpH7-A5/GpH7-B3 variant S337_10E/GpL16-k0 (antibody, human IgG1, kappa, heterodimerized; mutation in one H chain; also called He Ab) heavy 1: not shown heavy 2: not shown light: DIVMTQSPLSLPVTPGEPASISCQASESLVHSNRNTYLHWYLQKPGQSPQLLIYKVSNRFSGVPDRFSGSGSGTDFTLKISRVEAEDVGVYYCSQNTHVPPTFGQGTKVEIERTVAAPSVFIFPPSDEQLKSGTASVVCLLNNFYPREAKVQWKVDNALQSGNSQESVTEQDSKDSTYSLSSTLTLSKADYEKHKVYACEVTHQGLSSPVTKSFNRGEC | 112 % of GpH7-A5/GpH7-B3/GpL16-k0 (=100)
GpH7-A5/GpH7-B3 variant S337_15Y/GpL16-k0 (antibody, human IgG1, kappa, heterodimerized; mutation in one H chain; also called He Ab) heavy 1: not shown heavy 2: not shown light: DIVMTQSPLSLPVTPGEPASISCQASESLVHSNRNTYLHWYLQKPGQSPQLLIYKVSNRFSGVPDRFSGSGSGTDFTLKISRVEAEDVGVYYCSQNTHVPPTFGQGTKVEIERTVAAPSVFIFPPSDEQLKSGTASVVCLLNNFYPREAKVQWKVDNALQSGNSQESVTEQDSKDSTYSLSSTLTLSKADYEKHKVYACEVTHQGLSSPVTKSFNRGEC | 105 % of GpH7-A5/GpH7-B3/GpL16-k0 (=100)
GpH7-A5/GpH7-B3 variant S298_08L/GpL16-k0 (antibody, human IgG1, kappa, heterodimerized; mutation in one H chain; also called He Ab) heavy 1: not shown heavy 2: not shown light: DIVMTQSPLSLPVTPGEPASISCQASESLVHSNRNTYLHWYLQKPGQSPQLLIYKVSNRFSGVPDRFSGSGSGTDFTLKISRVEAEDVGVYYCSQNTHVPPTFGQGTKVEIERTVAAPSVFIFPPSDEQLKSGTASVVCLLNNFYPREAKVQWKVDNALQSGNSQESVTEQDSKDSTYSLSSTLTLSKADYEKHKVYACEVTHQGLSSPVTKSFNRGEC | 105 % of GpH7-A5/GpH7-B3/GpL16-k0 (=100)
GpH7-A5/GpH7-B3 variant S337_03V/GpL16-k0 (antibody, human IgG1, kappa, heterodimerized; mutation in one H chain; also called He Ab) heavy 1: not shown heavy 2: not shown light: DIVMTQSPLSLPVTPGEPASISCQASESLVHSNRNTYLHWYLQKPGQSPQLLIYKVSNRFSGVPDRFSGSGSGTDFTLKISRVEAEDVGVYYCSQNTHVPPTFGQGTKVEIERTVAAPSVFIFPPSDEQLKSGTASVVCLLNNFYPREAKVQWKVDNALQSGNSQESVTEQDSKDSTYSLSSTLTLSKADYEKHKVYACEVTHQGLSSPVTKSFNRGEC | 106 % of GpH7-A5/GpH7-B3/GpL16-k0 (=100)
GpH7-A5/GpH7-B3 variant S337_06M/GpL16-k0 (antibody, human IgG1, kappa, heterodimerized; mutation in one H chain; also called He Ab) heavy 1: not shown heavy 2: not shown light: DIVMTQSPLSLPVTPGEPASISCQASESLVHSNRNTYLHWYLQKPGQSPQLLIYKVSNRFSGVPDRFSGSGSGTDFTLKISRVEAEDVGVYYCSQNTHVPPTFGQGTKVEIERTVAAPSVFIFPPSDEQLKSGTASVVCLLNNFYPREAKVQWKVDNALQSGNSQESVTEQDSKDSTYSLSSTLTLSKADYEKHKVYACEVTHQGLSSPVTKSFNRGEC | 105 % of GpH7-A5/GpH7-B3/GpL16-k0 (=100)
GpH7-A5/GpH7-B3 variant S337_09D/GpL16-k0 (antibody, human IgG1, kappa, heterodimerized; mutation in one H chain; also called He Ab) heavy 1: not shown heavy 2: not shown light: DIVMTQSPLSLPVTPGEPASISCQASESLVHSNRNTYLHWYLQKPGQSPQLLIYKVSNRFSGVPDRFSGSGSGTDFTLKISRVEAEDVGVYYCSQNTHVPPTFGQGTKVEIERTVAAPSVFIFPPSDEQLKSGTASVVCLLNNFYPREAKVQWKVDNALQSGNSQESVTEQDSKDSTYSLSSTLTLSKADYEKHKVYACEVTHQGLSSPVTKSFNRGEC | 115 % of GpH7-A5/GpH7-B3/GpL16-k0 (=100)

Second part, the binder after the results:

He/Con_2aR | Binder
111 % of GpH7-A5/GpH7-B3/GpL16-k0 (=100) | GpH7-A5/GpH7-B3 variant T335_10E/GpL16-k0 (antibody, human IgG1, kappa, heterodimerized; mutation in one H chain; also called He Ab) heavy 1: not shown heavy 2: not shown light: DIVMTQSPLSLPVTPGEPASISCQASESLVHSNRNTYLHWYLQKPGQSPQLLIYKVSNRFSGVPDRFSGSGSGTDFTLKISRVEAEDVGVYYCSQNTHVPPTFGQGTKVEIERTVAAPSVFIFPPSDEQLKSGTASVVCLLNNFYPREAKVQWKVDNALQSGNSQESVTEQDSKDSTYSLSSTLTLSKADYEKHKVYACEVTHQGLSSPVTKSFNRGEC
106 % of GpH7-A5/GpH7-B3/GpL16-k0 (=100) | GpH7-A5/GpH7-B3 variant S337_19Q/GpL16-k0 (antibody, human IgG1, kappa, heterodimerized; mutation in one H chain; also called He Ab) heavy 1: not shown heavy 2: not shown light: DIVMTQSPLSLPVTPGEPASISCQASESLVHSNRNTYLHWYLQKPGQSPQLLIYKVSNRFSGVPDRFSGSGSGTDFTLKISRVEAEDVGVYYCSQNTHVPPTFGQGTKVEIERTVAAPSVFIFPPSDEQLKSGTASVVCLLNNFYPREAKVQWKVDNALQSGNSQESVTEQDSKDSTYSLSSTLTLSKADYEKHKVYACEVTHQGLSSPVTKSFNRGEC
102 % of GpH7-A5/GpH7-B3/GpL16-k0 (=100) | GpH7-A5/GpH7-B3 variant T335_02A/GpL16-k0 (antibody, human IgG1, kappa, heterodimerized; mutation in one H chain; also called He Ab) heavy 1: not shown heavy 2: not shown light: DIVMTQSPLSLPVTPGEPASISCQASESLVHSNRNTYLHWYLQKPGQSPQLLIYKVSNRFSGVPDRFSGSGSGTDFTLKISRVEAEDVGVYYCSQNTHVPPTFGQGTKVEIERTVAAPSVFIFPPSDEQLKSGTASVVCLLNNFYPREAKVQWKVDNALQSGNSQESVTEQDSKDSTYSLSSTLTLSKADYEKHKVYACEVTHQGLSSPVTKSFNRGEC
109 % of GpH7-A5/GpH7-B3/GpL16-k0 (=100) | GpH7-A5/GpH7-B3 variant T335_07I/GpL16-k0 (antibody, human IgG1, kappa, heterodimerized; mutation in one H chain; also called He Ab) heavy 1: not shown heavy 2: not shown light: DIVMTQSPLSLPVTPGEPASISCQASESLVHSNRNTYLHWYLQKPGQSPQLLIYKVSNRFSGVPDRFSGSGSGTDFTLKISRVEAEDVGVYYCSQNTHVPPTFGQGTKVEIERTVAAPSVFIFPPSDEQLKSGTASVVCLLNNFYPREAKVQWKVDNALQSGNSQESVTEQDSKDSTYSLSSTLTLSKADYEKHKVYACEVTHQGLSSPVTKSFNRGEC
